The results in this text go back to patent US20190322705A1 (NORWEGIAN UNIVERSITY OF LIFE SCIENCES, published 2019).

Common to all, as to assay: cell-based or functional assay
The target of assay [1] is RseP of E. faecalis HExxH>AAxxA, expressed in S. pneumoniae ms5 (Enterococcus faecalis) (UniProt Q9RPP2).
Assay [2] has as its target RseP of E. faecalis H18>A, expressed in S. pneumoniae ms1 (Enterococcus faecalis) (UniProt Q9RPP2).
Assay [3] deals with RseP of E. faecalis Y24>A, expressed in S. pneumoniae ms4 (Enterococcus faecalis) (UniProt Q9RPP2).
Assay [4] concerns the target RseP of E. faecalis H22>A, expressed in S. pneumoniae ms3 (Enterococcus faecalis) (UniProt Q9RPP2).
Assay [5] deals with RseP of E. faecalis E19>A, expressed in S. pneumoniae ms2 (Enterococcus faecalis) (UniProt Q9RPP2).
The target in assay [6] is RseP of E. faecalis LMGT3358 (WT rseP), expressed in S. pneumoniae ds220 (Enterococcus faecalis) (UniProt Q9RPP2).
Assay [7] deals with T1, RseP of E. faecalis HExxH>AAxxA, expressed in S. pneumoniae ms5 (Enterococcus faecalis, UniProt Q9RPP2 1-422).
T1 sequence: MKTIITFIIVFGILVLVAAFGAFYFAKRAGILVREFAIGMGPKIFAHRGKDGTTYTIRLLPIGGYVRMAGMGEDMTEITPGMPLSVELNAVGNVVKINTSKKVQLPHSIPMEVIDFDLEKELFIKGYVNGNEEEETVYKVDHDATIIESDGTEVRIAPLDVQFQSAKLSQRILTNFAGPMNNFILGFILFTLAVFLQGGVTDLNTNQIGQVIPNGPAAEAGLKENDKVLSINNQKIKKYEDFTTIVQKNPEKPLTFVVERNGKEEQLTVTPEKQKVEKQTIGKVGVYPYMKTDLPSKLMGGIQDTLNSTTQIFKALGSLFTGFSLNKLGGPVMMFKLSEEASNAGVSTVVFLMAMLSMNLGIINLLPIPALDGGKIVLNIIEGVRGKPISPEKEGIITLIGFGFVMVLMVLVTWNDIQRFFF

As to LsbB (peptide), in assay [1], the MIC (nM), S. pneumoniae ms5 is greater than 7000 nM. The molecule also registered an MIC (nM), S. pneumoniae ms1 in assay [2] greater than 7000 nM. Besides, in assay [3], the MIC (nM), S. pneumoniae ms4 was greater than 7000 nM. The molecule also displayed an MIC (nM), S. pneumoniae ms3 in assay [4] greater than 7000 nM. In assay [5], this molecule displayed an MIC (nM), S. pneumoniae ms2 greater than 7000 nM. Besides, in assay [6], the MIC (nM), S. pneumoniae ds220 induced is greater than 7000 nM.

MLAKIKAMIKKFPNPYTLAAKLTTYEINWYKQQYGRYPWERPVA [EntEJ97]: in assay [7], the “fold resistance against the WT RseP strain” value worked out at 30 times.
